± gives the uncertainty stated by the source.

B1: Transcription elongation regulator 1-like protein, residues 448 to 504; numbered along this chain, Q5VWI1 (parent)
chain: LPLEERVTHFRDMLLERGVSAFSTWEKELHKIVFDPRYLLLNSEERKQIFEQFVKTR

Variants of B1 are the subject of this series. The series can be described thus: abundance fitness (aPCA) (normalised: wild type 0, dead -1); higher = more abundant; growth selection in yeast, the domain comes from the species named. The following applies: Homo sapiens.
For the variant LPLEERVTHFRDMLSERGVSAFSTWEKELHKIVFDPRYLLLNSEERKQIFEQFVKTR [L15S], the abundance fitness amounted to 0.054 ± 0.1.

With LPLEERVTHFRDMLNERGVSAFSTWEKELHKIVFDPRYLLLNSEERKQIFEQFVKTR [L15N], the abundance fitness was -0.154 ± 0.37.

For the variant LPLEERVTHFRDMLKERGVSAFSTWEKELHKIVFDPRYLLLNSEERKQIFEQFVKTR [L15K], the abundance fitness was -0.161 ± 0.26.

LPLEERVTHFRDMLPERGVSAFSTWEKELHKIVFDPRYLLLNSEERKQIFEQFVKTR [L15P]: the abundance fitness is -0.548 ± 0.28.

For the variant LPLEERVTHFRDMLFERGVSAFSTWEKELHKIVFDPRYLLLNSEERKQIFEQFVKTR [L15F], the abundance fitness is -0.325 ± 0.38.

As to LPLEERVTHFRDMLWERGVSAFSTWEKELHKIVFDPRYLLLNSEERKQIFEQFVKTR [L15W], the abundance fitness is -0.406 ± 0.15.

Turning to LPLEERVTHFRDMLGERGVSAFSTWEKELHKIVFDPRYLLLNSEERKQIFEQFVKTR [L15G], the abundance fitness is -0.273 ± 0.11.

As for LPLEERVTHFRDMLLERGVSACSTWEKELHKIVFDPRYLLLNSEERKQIFEQFVKTR [F22C], the abundance fitness is 0.078 ± 0.12.

LPLEERVTHFRDMLLERGVSADSTWEKELHKIVFDPRYLLLNSEERKQIFEQFVKTR [F22D]: the abundance fitness stood at 0.292 ± 0.082.

In the case of LPLEERVTHFRDMLLERGVSRFSTWEKELHKIVFDPRYLLLNSEERKQIFEQFVKTR [A21R], the abundance fitness is -0.364 ± 0.19.

Regarding LPLEERVTHFRDMLLERGVSGFSTWEKELHKIVFDPRYLLLNSEERKQIFEQFVKTR [A21G], the abundance fitness was -0.365 ± 0.094.

For the variant LPLEERVTHFRDMLLERGVSEFSTWEKELHKIVFDPRYLLLNSEERKQIFEQFVKTR [A21E], the abundance fitness is -0.165 ± 0.17.

As for LPLEERVTHFRDMLLERGVSQFSTWEKELHKIVFDPRYLLLNSEERKQIFEQFVKTR [A21Q], the abundance fitness was -0.245 ± 0.34.

Consider LPLEERVTHFRDMLLERGVSWFSTWEKELHKIVFDPRYLLLNSEERKQIFEQFVKTR [A21W], for which the abundance fitness is -0.594 ± 0.26.

As for LPLEERVTHFRDMLLERGVSYFSTWEKELHKIVFDPRYLLLNSEERKQIFEQFVKTR [A21Y], the abundance fitness is -0.482 ± 0.11.

Take LPLEERVTHFRDMLLERGVSPFSTWEKELHKIVFDPRYLLLNSEERKQIFEQFVKTR [A21P]: the abundance fitness is -0.114 ± 0.1.

In the case of LPLEERVTHFRDMLLERGVSSFSTWEKELHKIVFDPRYLLLNSEERKQIFEQFVKTR [A21S], the abundance fitness is -0.303 ± 0.19.

Turning to LPLEERVTHFRDMLLERGVSKFSTWEKELHKIVFDPRYLLLNSEERKQIFEQFVKTR [A21K], the abundance fitness is -0.286 ± 0.11.

With LPLEERVTHFRDMLLERGVSCFSTWEKELHKIVFDPRYLLLNSEERKQIFEQFVKTR [A21C], the abundance fitness was -0.202 ± 0.34.

On to LPLEERVTHFRDMLLERGVSVFSTWEKELHKIVFDPRYLLLNSEERKQIFEQFVKTR [A21V], for which the abundance fitness is -0.22 ± 0.15.

LPLEERVTHFRDMLLERGVSFFSTWEKELHKIVFDPRYLLLNSEERKQIFEQFVKTR [A21F]: the abundance fitness was -0.593 ± 0.23.

With LPLEERVTHFRDMLLERGVSTFSTWEKELHKIVFDPRYLLLNSEERKQIFEQFVKTR [A21T], the abundance fitness was -0.399 ± 0.3.

For the variant LPLEERVTHFRDMLLERGVLAFSTWEKELHKIVFDPRYLLLNSEERKQIFEQFVKTR [S20L], the abundance fitness was -0.594 ± 0.22.

For the variant LPLEERVTHFRDMLLERGVFAFSTWEKELHKIVFDPRYLLLNSEERKQIFEQFVKTR [S20F], the abundance fitness is -0.523 ± 0.14.

As to LPLEERVTHFRDMLLERGVWAFSTWEKELHKIVFDPRYLLLNSEERKQIFEQFVKTR [S20W], the abundance fitness was -0.371 ± 0.18.

In the case of LPLEERVTHFRDMLLERGVNAFSTWEKELHKIVFDPRYLLLNSEERKQIFEQFVKTR [S20N], the abundance fitness is 0.589 ± 0.17.

With LPLEERVTHFRDMLLERGVVAFSTWEKELHKIVFDPRYLLLNSEERKQIFEQFVKTR [S20V], the abundance fitness is -0.691 ± 0.25.

With LPLEERVTHFRDMLLERGVCAFSTWEKELHKIVFDPRYLLLNSEERKQIFEQFVKTR [S20C], the abundance fitness was -0.169 ± 0.25.

Regarding LPLEERVTHFRDMLLERGVGAFSTWEKELHKIVFDPRYLLLNSEERKQIFEQFVKTR [S20G], the abundance fitness was -0.283 ± 0.1.

LPLEERVTHFRDMLLERGVAAFSTWEKELHKIVFDPRYLLLNSEERKQIFEQFVKTR [S20A]: the abundance fitness is -0.369 ± 0.16.

For LPLEERVTHFRDMLLERGVTAFSTWEKELHKIVFDPRYLLLNSEERKQIFEQFVKTR [S20T], the abundance fitness was -0.38 ± 0.33.

As to LPLEERVTHFRDMLLERGVDAFSTWEKELHKIVFDPRYLLLNSEERKQIFEQFVKTR [S20D], the abundance fitness is -0.185 ± 0.22.

Turning to LPLEERVTHFRDMLLERGVEAFSTWEKELHKIVFDPRYLLLNSEERKQIFEQFVKTR [S20E], the abundance fitness was -0.563 ± 0.23.

Turning to LPLEERVTHFRDMLLERGVPAFSTWEKELHKIVFDPRYLLLNSEERKQIFEQFVKTR [S20P], the abundance fitness is -0.535 ± 0.45.

For the variant LPLEERVTHFRDMLLERGVRAFSTWEKELHKIVFDPRYLLLNSEERKQIFEQFVKTR [S20R], the abundance fitness was -1 ± 0.38.

Regarding LPLEERVTHFRDMLLERGESAFSTWEKELHKIVFDPRYLLLNSEERKQIFEQFVKTR [V19E], the abundance fitness was -0.893 ± 0.14.

LPLEERVTHFRDMLLERGLSAFSTWEKELHKIVFDPRYLLLNSEERKQIFEQFVKTR [V19L]: the abundance fitness is -0.998 ± 0.32.

For the variant LPLEERVTHFRDMLLERGRSAFSTWEKELHKIVFDPRYLLLNSEERKQIFEQFVKTR [V19R], the abundance fitness was -0.916 ± 0.2.

Turning to LPLEERVTHFRDMLLERGWSAFSTWEKELHKIVFDPRYLLLNSEERKQIFEQFVKTR [V19W], the abundance fitness is -0.767 ± 0.27.

For the variant LPLEERVTHFRDMLLERGKSAFSTWEKELHKIVFDPRYLLLNSEERKQIFEQFVKTR [V19K], the abundance fitness is -0.376 ± 0.29.

LPLEERVTHFRDMLLERGQSAFSTWEKELHKIVFDPRYLLLNSEERKQIFEQFVKTR [V19Q]: the abundance fitness was -0.625 ± 0.4.

On to LPLEERVTHFRDMLLERGISAFSTWEKELHKIVFDPRYLLLNSEERKQIFEQFVKTR [V19I], for which the abundance fitness was -0.528 ± 0.15.

Turning to LPLEERVTHFRDMLLERGASAFSTWEKELHKIVFDPRYLLLNSEERKQIFEQFVKTR [V19A], the abundance fitness was -0.709 ± 0.22.

On to LPLEERVTHFRDMLLERGGSAFSTWEKELHKIVFDPRYLLLNSEERKQIFEQFVKTR [V19G], for which the abundance fitness was -0.7 ± 0.13.

With LPLEERVTHFRDMLLERGCSAFSTWEKELHKIVFDPRYLLLNSEERKQIFEQFVKTR [V19C], the abundance fitness is -0.611 ± 0.44.

Take LPLEERVTHFRDMLLERGSSAFSTWEKELHKIVFDPRYLLLNSEERKQIFEQFVKTR [V19S]: the abundance fitness is -0.805 ± 0.25.

In the case of LPLEERVTHFRDMLLERGTSAFSTWEKELHKIVFDPRYLLLNSEERKQIFEQFVKTR [V19T], the abundance fitness is -0.674 ± 0.25.
